Data set [1] has as its target T1, APOBEC3G (A3G) (Homo sapiens, UniProt Q9HC16 SEQ:1-384). In words: EMSA; 8 min RT. To be noted: tags: C-terminal Myc-His6, expressed in 293T cells; chain copies: monomer to multimer (stated). The protocol: (§1) FIG. 2D. A3G end-dependent association with ssDNA was assessed by electro-mobility shift assay (EMSA). S₁₆₀ oligonucleotide ends (3′, 5′, 3′+5′) were annealed to short complementary oligonucleotides (30 nt) and then incubated with A3G or BSA for 8 min at room temperature (RT). Acrylamide gels were stained with SYBR gold nucleic acid stain.
On the technique in general: In EMSA bound probe runs differently from free probe, usually more slowly.

Data set [2] concerns the target T1, APOBEC3G (A3G). Put plainly: EMSA; either 3' or 5' ssDNA terminus required; 5' preference. To be noted: tags: C-terminal Myc-His6, expressed in 293T cells, chain copies: monomer to multimer (stated), 3' end 30 nt duplex. The protocol:
as §1

Data set [3] concerns the target T1, APOBEC3G (A3G). In words: EMSA; 8 min 37 C; RPA pre-binding inhibits monomeric complex (FIG. 5C). The settings on record: tags: C-terminal Myc-His6, expressed in 293T cells; chain copies: monomer to multimer (stated); label: 3' dATP-biotin (TdT). The protocol: (§2) FIG. 3B. Electro-mobility shift assay (EMSA). The indicated proteins were incubated with biotinylated SC oligonucleotides (80 nt) for 8 min at 37° C. and resolved by native PAGE. Acrylamide gels were transferred to nylon membranes and probed by enhanced chemiluminescence.

The target in a further data set is APOBEC3G W285A (Homo sapiens, UniProt Q9HC16 SEQ:1-384). In words: EMSA; binding similar to wild type. The settings on record: tags: C-terminal His6, expressed in 293T cells; label: 3' dATP-biotin (TdT). The protocol:
as §2

T1 sequence (Q9HC16 whole entry): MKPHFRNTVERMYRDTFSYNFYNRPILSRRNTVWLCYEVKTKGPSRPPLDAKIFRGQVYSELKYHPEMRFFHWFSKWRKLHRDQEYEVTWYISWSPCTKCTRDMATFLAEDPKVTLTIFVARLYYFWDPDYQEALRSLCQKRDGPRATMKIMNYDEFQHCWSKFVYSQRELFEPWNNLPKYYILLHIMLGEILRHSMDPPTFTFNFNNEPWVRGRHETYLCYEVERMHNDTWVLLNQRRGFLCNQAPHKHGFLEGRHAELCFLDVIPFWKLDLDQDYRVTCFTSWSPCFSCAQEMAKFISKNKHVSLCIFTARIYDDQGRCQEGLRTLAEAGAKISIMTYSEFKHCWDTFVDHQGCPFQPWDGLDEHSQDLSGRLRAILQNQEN
APOBEC3G W285A, sequence (Q9HC16 whole entry W285A): as the sequence (Q9HC16 whole entry) above, with W285A counted along it

B1: S160 (ssDNA)
DNA: GGATTGGTTGGTTATTTGTTTAAGGAAGGAAGAAGGAAGGCCCAATAAGGGAAGGCCCAATAAGTGGGAAGGCCCAATAAGTGAATTAAATAAGTGATTGATAAATAAGTGATTGATAAGTTGATTAAATAGTTGGAAGTTATGTTTGGTAGATTGATGG
Take B1: the binding result with APOBEC3G (A3G) [1] is “binds”.

B2: S160 with 3' end double-stranded (mixed)
DNA 1: B1 DNA
DNA 2: CCATCAATCTACCAAACATAACTTCCATCA
Regarding B2, the binding result with APOBEC3G (A3G) [2] was “binds”.

B3: SC (ssDNA)
DNA: GGATTGGTTGGTTATTTGTTTAAGGAAGGTGGATTAAAGGCCCATAAGGTGATGGAAGTTATGTTTGGTAGATTGATGG
With B3, the binding result with APOBEC3G (A3G) [3] and in the data set with APOBEC3G W285A was “binds” throughout.

The values above are taken from US20150111836, “CELLULAR APOBEC3 PROTEINS AND MODULATORS THEREOF FOR REGULATING DNA REPAIR PROCESSES AND TREATING PROLIFERATIVE DISEASES” (YISSUM RESEARCH DEVELOPMENT COMPANY OF THE HEBREW …, published 2015).
